Test system: peptide library, one residue held at a place counted from the S/T acceptor
Experiment: relative phosphorylation of the sub-library (ratio to the mean residue at this position); higher = residue favoured
Summary of the method: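 Spots on streptavidin membranes were phosphorimaged and quantified by densitometry to measure phosphorylation of biotinylated degenerate peptide sub-libraries by purified recombinant kinases, human or orthologue constructs. The reactions ran in 384-well plates for 90 min under kinase-specific conditions, with peptides at 50 μM and 50 μM ATP spiked with γ-32P-ATP. Relative sub-library phosphorylation is the ratio to the mean residue at that position.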

Chain of DMPK, construct: aa24-433, human (Q09013 24-433, looked up): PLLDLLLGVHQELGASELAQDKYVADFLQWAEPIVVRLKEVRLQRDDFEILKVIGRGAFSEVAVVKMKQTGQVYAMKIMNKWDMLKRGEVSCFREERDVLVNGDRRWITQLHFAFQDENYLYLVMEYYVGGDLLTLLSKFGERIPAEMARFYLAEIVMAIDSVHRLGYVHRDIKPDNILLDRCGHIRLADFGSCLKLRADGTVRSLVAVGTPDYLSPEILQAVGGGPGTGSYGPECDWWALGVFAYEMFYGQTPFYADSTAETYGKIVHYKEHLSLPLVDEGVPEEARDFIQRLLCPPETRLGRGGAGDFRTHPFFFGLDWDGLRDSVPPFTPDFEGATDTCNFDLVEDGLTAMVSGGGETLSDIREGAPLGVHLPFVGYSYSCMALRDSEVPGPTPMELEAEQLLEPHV
Chain of NEK2, construct: Full length, human (P51955 whole entry, looked up): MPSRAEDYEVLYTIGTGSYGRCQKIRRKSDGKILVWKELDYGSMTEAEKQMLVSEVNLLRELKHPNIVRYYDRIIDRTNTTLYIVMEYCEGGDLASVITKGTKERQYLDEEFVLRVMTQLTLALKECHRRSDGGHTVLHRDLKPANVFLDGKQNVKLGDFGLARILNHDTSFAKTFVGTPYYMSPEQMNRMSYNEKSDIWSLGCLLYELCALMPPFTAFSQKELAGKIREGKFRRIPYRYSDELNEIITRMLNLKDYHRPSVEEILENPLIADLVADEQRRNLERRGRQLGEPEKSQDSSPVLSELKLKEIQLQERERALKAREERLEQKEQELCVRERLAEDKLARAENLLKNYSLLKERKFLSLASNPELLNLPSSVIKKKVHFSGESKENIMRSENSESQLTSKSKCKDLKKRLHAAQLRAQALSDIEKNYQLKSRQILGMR

MAPK9, construct: Full length, human (from UniProt P45984)
relative phosphorylation
Settings | at +1 | at +2 | at +3 | at +4 | at -1 | at -2 | at -3 | at -4 | at -5
A fixed | 0.338 | 0.988 | 1.43 | 1.17 | 1.16 | 2.09 | 1.24 | 1.17 | 1.14
D fixed | 0.147 | 0.96 | 1.38 | 1.21 | 0.686 | 0.686 | 1.13 | 1.19 | 0.957
E fixed | 0.151 | 0.694 | 1.34 | 1.27 | 0.862 | 0.379 | 1.19 | 1.09 | 0.869
F fixed | 0.358 | 0.75 | 0.781 | 0.805 | 0.68 | 0.717 | 0.814 | 0.965 | 0.946
G fixed | 0.646 | 1.33 | 1.53 | 1.32 | 1.28 | 0.653 | 1.21 | 1.14 | 1.15
H fixed | 0.195 | 0.997 | 0.985 | 1.02 | 1 | 0.494 | 0.95 | 0.878 | 0.924
I fixed | 0.433 | 1.24 | 0.638 | 0.879 | 0.695 | 1.28 | 0.76 | 0.861 | 0.801
K fixed | 0.164 | 0.632 | 0.648 | 0.795 | 1.09 | 0.545 | 0.915 | 1.08 | 1.34
L fixed | 0.462 | 1.18 | 0.879 | 0.787 | 1.37 | 2.05 | 1.08 | 1 | 0.923
M fixed | 0.314 | 1.75 | 0.959 | 0.913 | 1.4 | 1.28 | 0.93 | 1.04 | 0.801
N fixed | 0.17 | 1.07 | 0.973 | 0.934 | 0.854 | 0.494 | 1.07 | 0.886 | 0.94
P fixed | 12.4 | 0.721 | 0.886 | 1.66 | 1.28 | 2.58 | 1.16 | 1.24 | 1.38
Q fixed | 0.193 | 1.06 | 1.01 | 1.04 | 1.36 | 0.741 | 1.07 | 1.06 | 1.02
R fixed | 0.187 | 0.803 | 0.908 | 0.802 | 1.25 | 0.635 | 1.09 | 0.938 | 1.02
V fixed | 0.339 | 1.4 | 0.845 | 0.869 | 0.76 | 1.32 | 0.768 | 0.365 | 0.833
W fixed | 0.303 | 0.69 | 0.951 | 0.817 | 0.533 | 0.543 | 0.729 | 1.02 | 0.886
Y fixed | 0.239 | 0.745 | 0.859 | 0.712 | 0.743 | 0.511 | 0.875 | 1.09 | 1.07
pThr fixed | 0.495 | 2.23 | 1.06 | 1.16 | 0.432 | 0.933 | 0.957 | 0.975 | 0.996
pTyr fixed | 0.347 | 0.987 | 1.07 | 0.719 | 0.468 | 0.429 | 0.778 | 0.808 | 0.836

PRKCD, construct: Full length, human (from UniProt Q05655)
relative phosphorylation
Settings | at +1 | at +2 | at +3 | at +4 | at -1 | at -2 | at -3 | at -4 | at -5
A fixed | 0.496 | 0.437 | 0.73 | 0.842 | 0.91 | 0.9 | 0.795 | 1.04 | 1.04
D fixed | 0.253 | 0.525 | 0.696 | 1.03 | 0.598 | 0.587 | 0.699 | 0.932 | 1.2
E fixed | 0.309 | 0.317 | 0.608 | 0.63 | 0.465 | 0.531 | 0.579 | 0.972 | 0.903
F fixed | 1.51 | 0.438 | 0.642 | 0.4 | 0.549 | 0.621 | 0.594 | 0.703 | 0.815
G fixed | 0.553 | 0.459 | 1.11 | 1.28 | 1.64 | 1.2 | 0.977 | 1.36 | 1.18
H fixed | 0.803 | 1.39 | 0.871 | 1.23 | 0.961 | 1.13 | 1.17 | 1.14 | 1.07
I fixed | 1.65 | 0.64 | 0.781 | 0.695 | 0.355 | 0.466 | 0.401 | 0.617 | 0.809
K fixed | 1.74 | 3.33 | 2.15 | 2.05 | 2.3 | 1.9 | 1.91 | 1.55 | 1.48
L fixed | 1.21 | 0.564 | 0.846 | 0.757 | 0.658 | 0.506 | 0.464 | 0.608 | 0.78
M fixed | 1.58 | 0.69 | 0.801 | 0.731 | 0.852 | 0.677 | 0.576 | 0.807 | 0.657
N fixed | 0.685 | 1 | 1.04 | 1.13 | 1.38 | 1.22 | 1.07 | 1.1 | 0.932
P fixed | 0.343 | 0.487 | 0.68 | 1.54 | 1.29 | 0.835 | 1.12 | 1.18 | 1.17
Q fixed | 1.18 | 0.93 | 1.04 | 1.19 | 1.35 | 1.23 | 1.01 | 0.979 | 0.868
R fixed | 1.6 | 3.33 | 2.03 | 1.48 | 1.74 | 3.16 | 3.86 | 1.58 | 1.65
V fixed | 1.39 | 0.648 | 0.742 | 0.65 | 0.583 | 0.522 | 0.406 | 0.691 | 0.769
W fixed | 0.743 | 0.741 | 1.12 | 0.746 | 0.527 | 0.806 | 0.658 | 1.1 | 0.993
Y fixed | 0.961 | 1.07 | 1.11 | 0.625 | 0.834 | 0.713 | 0.707 | 0.638 | 0.685
pThr fixed | 0.685 | 0.458 | 0.52 | 0.675 | 0.341 | 0.563 | 0.624 | 0.713 | 0.644
pTyr fixed | 0.469 | 0.662 | 0.56 | 0.396 | 0.465 | 0.576 | 0.541 | 0.524 | 0.673

DMPK, construct: aa24-433, human (from UniProt Q09013)
relative phosphorylation
Settings | at +1 | at +2 | at +3 | at +4 | at -1 | at -2 | at -3 | at -4 | at -5
A fixed | 0.884 | 1.09 | 0.772 | 0.749 | 0.934 | 0.551 | 0.572 | 0.816 | 0.664
D fixed | 0.54 | 1.27 | 0.59 | 0.767 | 0.487 | 0.294 | 0.309 | 0.393 | 0.359
E fixed | 0.471 | 0.67 | 0.579 | 0.643 | 0.362 | 0.268 | 0.284 | 0.456 | 0.379
F fixed | 0.68 | 0.838 | 0.963 | 0.954 | 0.739 | 0.349 | 0.269 | 0.657 | 0.8
G fixed | 1.68 | 0.858 | 1.04 | 0.945 | 1.08 | 0.537 | 0.448 | 0.959 | 0.915
H fixed | 1.2 | 1.38 | 1.14 | 1.05 | 1.01 | 0.716 | 0.776 | 0.898 | 1.07
I fixed | 1.2 | 1.12 | 1.64 | 0.829 | 0.585 | 0.43 | 0.343 | 0.946 | 1.11
K fixed | 1.05 | 1.23 | 1.03 | 1.47 | 2.01 | 2.67 | 3.21 | 2.42 | 2.72
L fixed | 0.967 | 0.883 | 1.04 | 1.09 | 0.674 | 0.418 | 0.343 | 0.749 | 0.847
M fixed | 0.961 | 0.75 | 0.779 | 0.916 | 0.755 | 0.485 | 0.297 | 0.749 | 0.756
N fixed | 1.29 | 0.779 | 0.83 | 1.01 | 1.2 | 0.747 | 0.43 | 0.864 | 0.675
P fixed | 0.622 | 0.808 | 0.79 | 1.18 | 1.74 | 0.474 | 0.461 | 0.796 | 0.872
Q fixed | 1.25 | 1.06 | 0.882 | 1.07 | 1.22 | 0.933 | 0.877 | 0.922 | 0.882
R fixed | 1.87 | 1.28 | 1.54 | 1.47 | 2.18 | 6.76 | 7.34 | 3.06 | 2.66
V fixed | 0.943 | 1.28 | 1.5 | 0.825 | 0.605 | 0.507 | 0.369 | 0.95 | 0.803
W fixed | 0.641 | 0.925 | 0.926 | 1.21 | 0.644 | 0.431 | 0.304 | 0.647 | 0.657
Y fixed | 0.742 | 0.796 | 0.971 | 0.832 | 0.78 | 0.428 | 0.371 | 0.719 | 0.839
pThr fixed | 0.678 | 1.19 | 0.865 | 0.862 | 0.521 | 0.441 | 0.48 | 0.575 | 0.561
pTyr fixed | 0.522 | 0.996 | 0.772 | 0.617 | 0.52 | 0.387 | 0.493 | 0.548 | 0.689

NEK2, construct: Full length, human (from UniProt P51955)
relative phosphorylation
Settings | at +1 | at +2 | at +3 | at +4 | at -1 | at -2 | at -3 | at -4 | at -5
A fixed | 0.655 | 1.03 | 0.897 | 0.958 | 1.25 | 1.5 | 1.09 | 1.06 | 1.3
D fixed | 0.189 | 0.318 | 0.782 | 0.806 | 0.644 | 0.552 | 0.307 | 0.772 | 0.938
E fixed | 0.203 | 0.195 | 0.916 | 0.811 | 0.81 | 0.438 | 0.301 | 0.73 | 0.694
F fixed | 1.19 | 0.835 | 0.878 | 0.906 | 0.783 | 1.2 | 2.37 | 1.2 | 1.3
G fixed | 0.656 | 0.834 | 1.06 | 1.12 | 0.959 | 1.29 | 1.23 | 1.29 | 1.14
H fixed | 1.03 | 1.43 | 1.08 | 1.04 | 1.03 | 1.16 | 1.07 | 1.11 | 1
I fixed | 1.5 | 0.624 | 0.864 | 0.775 | 0.561 | 0.636 | 0.466 | 0.818 | 0.767
K fixed | 0.846 | 1.69 | 1.18 | 1.4 | 1.53 | 1.42 | 0.638 | 1.07 | 1.19
L fixed | 1.79 | 0.638 | 1.06 | 0.949 | 0.917 | 0.799 | 1.89 | 1.04 | 0.828
M fixed | 2.1 | 0.873 | 0.899 | 0.875 | 1.4 | 1.11 | 1.77 | 0.964 | 0.862
N fixed | 0.85 | 0.888 | 1.02 | 0.964 | 1.04 | 0.989 | 0.733 | 0.931 | 0.884
P fixed | 0.151 | 0.771 | 1.08 | 1.14 | 0.23 | 0.405 | 0.965 | 0.963 | 1.04
Q fixed | 1.26 | 0.696 | 0.874 | 1.06 | 1.21 | 0.852 | 0.661 | 0.881 | 0.81
R fixed | 1.26 | 3.71 | 1.5 | 1.45 | 1.98 | 1.75 | 0.77 | 0.902 | 1.18
V fixed | 1.18 | 0.71 | 0.875 | 0.745 | 0.743 | 0.65 | 0.48 | 0.828 | 0.934
W fixed | 0.983 | 0.748 | 0.916 | 1.14 | 0.85 | 1.06 | 1.11 | 1.44 | 1.1
Y fixed | 1.17 | 1.01 | 1.13 | 0.874 | 1.08 | 1.19 | 1.15 | 1.01 | 1.03
pThr fixed | 0.425 | 0.383 | 0.557 | 0.688 | 0.278 | 0.449 | 0.545 | 0.747 | 0.658
pTyr fixed | 0.547 | 0.275 | 0.758 | 0.62 | 0.697 | 0.525 | 0.752 | 0.642 | 0.66

From the supplement of paper PMC9876800
